# Test results taken from patent US20250243277A1 (AVACTA LIFE SCIENCES, published 2025).
# B1: Clone 65 (designed binder)
# chain: MIPGGLSEAKPATPEIQEIVDKVKPQLEEKTGETYGKLEAVQYKTQVVDYRAIWHWWGTNYYIKVRAGDNKYMHLKVFKSLFHAEGDIWDEDLVLTGYQVDKNKDDELTGF
# notes: His-tagged
# B2: Clone 250 (designed binder)
# chain: MIPGGLSEAKPATPEIQEIVDKVKPQLEEKTGETYGKLEAVQYKTQVVRDPDVFVFSGTNYYIKVRAGDNKYMHLKVFKSLWYYNDNQSGEDLVLTGYQVDKNKDDELTGF
# notes: His-tagged
# B3: Clone 44 (designed binder)
# chain: MIPGGLSEAKPATPEIQEIVDKVKPQLEEKTGETYGKLEAVQYKTQVVRTKETKKSWGTNYYIKVRAGDNKYMHLKVFKSLQKIHAIFYVEDLVLTGYQVDKNKDDELTGF
# notes: His-tagged
# B4: Clone 37 (designed binder)
# chain: MIPGGLSEAKPATPEIQEIVDKVKPQLEEKTGETYGKLEAVQYKTQVVHHFAEVKWYGTNYYIKVRAGDNKYMHLKVFKSLKITGSTLTFEDLVLTGYQVDKNKDDELTGF
# notes: His-tagged
# B5: Clone 64 (designed binder)
# chain: MIPGGLSEAKPATPEIQEIVDKVKPQLEEKTGETYGKLEAVQYKTQVVIAHIHWKYFGTNYYIKVRAGDNKYMHLKVFKSLHLAKGQWREEDLVLTGYQVDKNKDDELTGF
# notes: His-tagged
# B6: Clone 25 (designed binder)
# chain: MIPGGLSEAKPATPEIQEIVDKVKPQLEEKTGETYGKLEAVQYKTQVVVRHPRWFFIGTNYYIKVRAGDNKYMHLKVFKSLKKHGDEVTLEDLVLTGYQVDKNKDDELTGF
# notes: His-tagged
# B7: Clone 46 (designed binder)
# chain: MIPGGLSEAKPATPEIQEIVDKVKPQLEEKTGETYGKLEAVQYKTQVVVQHSLWYFQGTNYYIKVRAGDNKYMHLKVFKSLFKHPEENPVEDLVLTGYQVDKNKDDELTGF
# notes: His-tagged
# B8: Clone 41 (designed binder)
# chain: MIPGGLSEAKPATPEIQEIVDKVKPQLEEKTGETYGKLEAVQYKTQVVGTRDEWHWVGTNYYIKVRAGDNKYMHLKVFKSLFVKDDGRVDEDLVLTGYQVDKNKDDELTGF
# notes: His-tagged
# B9: Clone 47 (designed binder)
# chain: MIPGGLSEAKPATPEIQEIVDKVKPQLEEKTGETYGKLEAVQYKTQVVGVKQTWNWNGTNYYIKVRAGDNKYMHLKVFKSLFGLNDDEPVEDLVLTGYQVDKNKDDELTGF
# notes: His-tagged
# B10: Clone 53 (designed binder)
# chain: MIPGGLSEAKPATPEIQEIVDKVKPQLEEKTGETYGKLEAVQYKTQVVAWDWLPAYRGTNYYIKVRAGDNKYMHLKVFKSLFKFQNESFAEDLVLTGYQVDKNKDDELTGF
# notes: His-tagged
# B11: Clone 39 (designed binder)
# chain: MIPGGLSEAKPATPEIQEIVDKVKPQLEEKTGETYGKLEAVQYKTQVVEIRPVWDWSGTNYYIKVRAGDNKYMHLKVFKSLFDHESKPTAEDLVLTGYQVDKNKDDELTGF
# notes: His-tagged
# B12: Clone 248 (designed binder)
# chain: MIPGGLSEAKPATPEIQEIVDKVKPQLEEKTGETYGKLEAVQYKTQVVLQLPPRPHDGTNYYIKVRAGDNKYMHLKVFKSLNWEPAQHPVEDLVLTGYQVDKNKDDELTGF
# notes: His-tagged
# B13: Clone 55 (designed binder)
# chain: MIPGGLSEAKPATPEIQEIVDKVKPQLEEKTGETYGKLEAVQYKTQVVAGWSLPPHLGTNYYIKVRAGDNKYMHLKVFKSLINHAGQKSDEDLVLTGYQVDKNKDDELTGF
# notes: His-tagged
# B14: Clone 43 (designed binder)
# chain: MIPGGLSEAKPATPEIQEIVDKVKPQLEEKTGETYGKLEAVQYKTQVVVQHPQWHWKGTNYYIKVRAGDNKYMHLKVFKSLVQQRDVWINEDLVLTGYQVDKNKDDELTGF
# notes: His-tagged
# B15: Clone 57 (designed binder)
# chain: MIPGGLSEAKPATPEIQEIVDKVKPQLEEKTGETYGKLEAVQYKTQVVELDGDHTWLGTNYYIKVRAGDNKYMHLKVFKSLRQLHRIWYFEDLVLTGYQVDKNKDDELTGF
# notes: His-tagged
# B16: Clone 27 (designed binder)
# chain: MIPGGLSEAKPATPEIQEIVDKVKPQLEEKTGETYGKLEAVQYKTQVVDVKPKWQWTGTNYYIKVRAGDNKYMHLKVFKSLFEGEDRDAVEDLVLTGYQVDKNKDDELTGF
# notes: His-tagged
# B17: Clone 50 (designed binder)
# chain: MIPGGLSEAKPATPEIQEIVDKVKPQLEEKTGETYGKLEAVQYKTQVVGRQVKWAWTGTNYYIKVRAGDNKYMHLKVFKSLFKQHHNISEEDLVLTGYQVDKNKDDELTGF
# notes: His-tagged
# B18: Clone 42 (designed binder)
# chain: MIPGGLSEAKPATPEIQEIVDKVKPQLEEKTGETYGKLEAVQYKTQVVIQHIWWDFVGTNYYIKVRAGDNKYMHLKVFKSLSRLEPAGHQEDLVLTGYQVDKNKDDELTGF
# notes: His-tagged
# B19: Clone 69 (designed binder)
# chain: MIPGGLSEAKPATPEIQEIVDKVKPQLEEKTGETYGKLEAVQYKTQVVYKVDNNNYQGTNYYIKVRAGDNKYMHLKVFKSLITWQLNQPREDLVLTGYQVDKNKDDELTGF
# notes: His-tagged
# B20: Clone 59 (designed binder)
# chain: MIPGGLSEAKPATPEIQEIVDKVKPQLEEKTGETYGKLEAVQYKTQVVREPALWHFRGTNYYIKVRAGDNKYMHLKVFKSLTFKVDTWKVEDLVLTGYQVDKNKDDELTGF
# notes: His-tagged
# B21: Clone 51 (designed binder)
# chain: MIPGGLSEAKPATPEIQEIVDKVKPQLEEKTGETYGKLEAVQYKTQVVSHHASPSHIGTNYYIKVRAGDNKYMHLKVFKSLTTDPNWDVHEDLVLTGYQVDKNKDDELTGF
# notes: His-tagged
# B22: Clone 66 (designed binder)
# chain: MIPGGLSEAKPATPEIQEIVDKVKPQLEEKTGETYGKLEAVQYKTQVVNLKPDVQGSGTNYYIKVRAGDNKYMHLKVFKSLIVVKRYWYVEDLVLTGYQVDKNKDDELTGF
# notes: His-tagged
# B23: Clone 252 (designed binder)
# chain: MIPGGLSEAKPATPEIQEIVDKVKPQLEEKTGETYGKLEAVQYKTQVVAVRPIFKWAGTNYYIKVRAGDNKYMHLKVFKSLFHGPLDNYTEDLVLTGYQVDKNKDDELTGF
# notes: His-tagged
# B24: Clone 63 (designed binder)
# chain: MIPGGLSEAKPATPEIQEIVDKVKPQLEEKTGETYGKLEAVQYKTQVVQEYEDQEWAGTNYYIKVRAGDNKYMHLKVFKSLHLWNQQIYREDLVLTGYQVDKNKDDELTGF
# notes: His-tagged
# B25: Clone 4 (designed binder)
# chain: MIPGGLSEAKPATPEIQEIVDKVKPQLEEKTGETYGKLEAVQYKTQVVFQTWDHAWTGTNYYIKVRAGDNKYMHLKVFKSLFAAETQQYYEDLVLTGYQVDKNKDDELTGF
# notes: His-tagged
# B26: Clone 33 (designed binder)
# chain: MIPGGLSEAKPATPEIQEIVDKVKPQLEEKTGETYGKLEAVQYKTQVVNQPQPPWIRGTNYYIKVRAGDNKYMHLKVFKSLNWNSPNLTWEDLVLTGYQVDKNKDDELTGF
# notes: His-tagged
# B27: Clone 249 (designed binder)
# chain: MIPGGLSEAKPATPEIQEIVDKVKPQLEEKTGETYGKLEAVQYKTQVVIYYPIWGFQGTNYYIKVRAGDNKYMHLKVFKSLRWSKDGATAEDLVLTGYQVDKNKDDELTGF
# notes: His-tagged
# B28: Clone 5 (designed binder)
# chain: MIPGGLSEAKPATPEIQEIVDKVKPQLEEKTGETYGKLEAVQYKTQVVFLDWKQHWRGTNYYIKVRAGDNKYMHLKVFKSLFNDKHNSTEDLVLTGYQVDKNKDDELTGF
# notes: His-tagged
# B29: Clone 60 (designed binder)
# chain: MIPGGLSEAKPATPEIQEIVDKVKPQLEEKTGETYGKLEAVQYKTQVVPQVQEPWWIGTNYYIKVRAGDNKYMHLKVFKSLYKAYIQGWNEDLVLTGYQVDKNKDDELTGF
# notes: His-tagged
# B30: Clone 45 (designed binder)
# chain: MIPGGLSEAKPATPEIQEIVDKVKPQLEEKTGETYGKLEAVQYKTQVVREYPHFQGYGTNYYIKVRAGDNKYMHLKVFKSLILNAGGIRWEDLVLTGYQVDKNKDDELTGF
# notes: His-tagged
# B31: Clone 61 (designed binder)
# chain: MIPGGLSEAKPATPEIQEIVDKVKPQLEEKTGETYGKLEAVQYKTQVVPTGTHQWAAGTNYYIKVRAGDNKYMHLKVFKSLWASLESGQNEDLVLTGYQVDKNKDDELTGF
# notes: His-tagged
# B32: Clone 6 (designed binder)
# chain: MIPGGLSEAKPATPEIQEIVDKVKPQLEEKTGETYGKLEAVQYKTQVVLSEAVYIWAGTNYYIKVRAGDNKYMHLKVFKSLNSRWYGPLGEDLVLTGYQVDKNKDDELTGF
# notes: His-tagged
# B33: Clone 31 (designed binder)
# chain: MIPGGLSEAKPATPEIQEIVDKVKPQLEEKTGETYGKLEAVQYKTQVVAQDLSAFQIGTNYYIKVRAGDNKYMHLKVFKSLIFAPLKPWREDLVLTGYQVDKNKDDELTGF
# notes: His-tagged
# B34: Clone 35 (designed binder)
# chain: MIPGGLSEAKPATPEIQEIVDKVKPQLEEKTGETYGKLEAVQYKTQVVKYETHFYYEGTNYYIKVRAGDNKYMHLKVFKSLPKRWAYNAYEDLVLTGYQVDKNKDDELTGF
# notes: His-tagged
# B35: Clone 28 (designed binder)
# chain: MIPGGLSEAKPATPEIQEIVDKVKPQLEEKTGETYGKLEAVQYKTQVVAAFSVHPSSGTNYYIKVRAGDNKYMHLKVFKSLEKYHNIWYVEDLVLTGYQVDKNKDDELTGF
# notes: His-tagged
# Molecular target: T1, human PD-L1-Fc (R&D Systems) (human, UniProt Q9NZQ7 19-239)
# T1 construct: Bought from R&D Systems; Biotinylated in-house for the phage selection; also called huPD-L1-Fc; human PD-L1-Fc antigen; not shown: Fc part of the bought fusion
# T1 sequence (Q9NZQ7 19-239 limits assumed): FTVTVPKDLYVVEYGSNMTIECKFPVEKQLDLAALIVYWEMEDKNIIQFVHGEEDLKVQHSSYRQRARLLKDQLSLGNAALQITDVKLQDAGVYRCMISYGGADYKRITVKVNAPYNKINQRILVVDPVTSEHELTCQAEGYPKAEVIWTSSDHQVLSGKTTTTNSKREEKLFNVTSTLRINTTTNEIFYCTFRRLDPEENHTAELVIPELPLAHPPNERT
# Assay: soluble Affimer ELISA
row,binding result,Binder
1,binds,B1
2,binds,B2
3,binds,B3
4,binds,B4
5,binds,B5
6,binds,B6
7,binds,B7
8,binds,B8
9,binds,B9
10,binds,B10
11,binds,B11
12,binds,B12
13,binds,B13
14,binds,B14
15,binds,B15
16,binds,B16
17,binds,B17
18,binds,B18

row,binding result,Binder
1,binds,B19
2,binds,B20
3,binds,B21
4,binds,B22
5,binds,B23
6,binds,B24
7,binds,B25
8,binds,B26
9,binds,B27
10,binds,B28
11,binds,B29
12,binds,B30
13,binds,B31
14,binds,B32
15,binds,B33
16,binds,B34
17,binds,B35
